According to patent US20170267766A1:

Experiments:
[1] = molecular target: human IGF-1R (native, on cells) (human) (UniProt P08069); assay: FACS titration, MCF-7
[2] = molecular target: soluble recombinant human IGF-1R hetero-tetramere with C-terminal 10-His tag (R&D Systems 305-GR) (human) (UniProt P08069); assay: SPR Biacore X100, Ln(2)/koff, mean of 4
[3] = molecular target: human IGF-1R (native, on cells) (human) (UniProt P08069); assay: cell-based or functional assay
[4] = molecular target: monkey IGF-1R (on COS-7 cells) (African green monkey); assay: FACS titration, Cos-7
[5] = molecular target: human IGF-1R (native, on cells) (human) (UniProt P08069); assay: FACS on MCF-7 cells, 4°C; inset table, axis log [M] (Table 14b prints it rounded as 7.09E-10)
[6] = molecular target: monkey IGF-1R (on COS-7 cells) (African green monkey); assay: FACS on COS-7 cells, 4°C; inset table, axis log [M] (Table 14b prints it rounded as 5.1E-10)
[7] = molecular target: soluble recombinant human IGF-1R hetero-tetramere with C-terminal 10-His tag (R&D Systems 305-GR) (human) (UniProt P08069); assay: SPR Biacore X100, His-captured h-IGF-1R ~600 RU, mean of 4

EC50 [1]: 0.709 nM
half-life of the complex [2]: 2 to 3 h
% internalization [3]: 87%
ΔMFI (MCF-7, 10 µg/ml, 4 h) [3]: 344 MFI
EC50 [4]: 0.51 nM
EC50 [5]: 0.71 nM
EC50 [6]: 0.511 nM
Kd [7]: 0.06 nM
B1: hz208F2 H026/L024 (antibody, from a related filing, V domains shown)
VH: QVQLVQSGAEVKKPGASVKMSCKASGYTFTSYYIYWVKQAPGQGLEWLGWIWPGDGSTKYNEKFQGRVTLTADKSSNTAYMFLSSLRSEDTAVYFCASPMITPNYAMDYWGQGTLVTVSS
VL: DIQMTQSPSSLSASVGDRVTISCRASQDISKYLNWYQQKPGKAPKLLIYYTSRLHSGVPSRFSGRGSGTDYSLTISNLQPEDFATYFCQQGSTLPYTFGGGTKVEIKR
